Here are results for one molecule from article PMC5156300 (mBio, 2016).

This test deals with T1, NP from influenza virus A/WSN/33 with a C-terminal His tag (Influenza A virus A/WSN/33), P15682.
T1 chain: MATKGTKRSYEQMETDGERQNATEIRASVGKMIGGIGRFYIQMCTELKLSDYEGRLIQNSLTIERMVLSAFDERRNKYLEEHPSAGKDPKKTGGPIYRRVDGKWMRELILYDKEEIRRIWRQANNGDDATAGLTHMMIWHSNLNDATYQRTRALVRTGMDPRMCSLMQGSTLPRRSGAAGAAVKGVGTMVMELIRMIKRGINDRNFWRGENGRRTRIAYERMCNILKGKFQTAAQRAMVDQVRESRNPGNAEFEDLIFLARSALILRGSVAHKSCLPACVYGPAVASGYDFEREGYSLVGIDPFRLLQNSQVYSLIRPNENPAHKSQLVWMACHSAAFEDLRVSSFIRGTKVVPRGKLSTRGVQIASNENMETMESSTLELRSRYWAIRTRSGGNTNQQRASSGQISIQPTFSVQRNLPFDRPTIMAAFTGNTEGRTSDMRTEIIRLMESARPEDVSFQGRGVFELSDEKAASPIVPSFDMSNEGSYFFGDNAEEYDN
The experiment in a line: crystal structure. The conditions noted are these: remark: other sources report otherwise.

B1: NP from influenza virus A/WSN/33 with a C-terminal His tag, P15682 1-498 (natural protein)
chain: MATKGTKRSYEQMETDGERQNATEIRASVGKMIGGIGRFYIQMCTELKLSDYEGRLIQNSLTIERMVLSAFDERRNKYLEEHPSAGKDPKKTGGPIYRRVDGKWMRELILYDKEEIRRIWRQANNGDDATAGLTHMMIWHSNLNDATYQRTRALVRTGMDPRMCSLMQGSTLPRRSGAAGAAVKGVGTMVMELIRMIKRGINDRNFWRGENGRRTRIAYERMCNILKGKFQTAAQRAMVDQVRESRNPGNAEFEDLIFLARSALILRGSVAHKSCLPACVYGPAVASGYDFEREGYSLVGIDPFRLLQNSQVYSLIRPNENPAHKSQLVWMACHSAAFEDLRVSSFIRGTKVVPRGKLSTRGVQIASNENMETMESSTLELRSRYWAIRTRSGGNTNQQRASSGQISIQPTFSVQRNLPFDRPTIMAAFTGNTEGRTSDMRTEIIRLMESARPEDVSFQGRGVFELSDEKAASPIVPSFDMSNEGSYFFGDNAEEYDN
One may read the stoichiometry N as a count of units in the complex or per binding partner. B1 had a stoichiometry N of 3.
